Assays:
Conditions in all cases: remark: other sources report otherwise
[1] = target: 67C11; test: ELISA signal over HTRF expression signal, P. pastoris
[2] = target: 63C3; test: as above
[3] = target: 35H3; test: as above
[4] = target: 51G3; test: as above
[5] = target: 9C6; test: as above
[6] = target: s127H1; test: apparent Kd (Kd^app), purified polypeptide; method not stated
[7] = target: s86B4; test: as above
[8] = target: s6E12; test: as above
[9] = target: s74H9; test: as above
[10] = target: s55G7; test: as above
[11] = target: 171E5; test: ELISA signal over HTRF expression signal, HEK293F
[12] = target: 220C9; test: ELISA signal over HTRF expression signal, HEK293F
[13] = target: 6E12; test: ELISA signal over HTRF expression signal, HEK293F
[14] = target: 74H9; test: ELISA signal over HTRF expression signal, HEK293F
[15] = target: 113E7; test: ELISA signal over HTRF expression signal, HEK293F
[16] = target: 91C4; test: ELISA signal over HTRF expression signal, HEK293F
[17] = target: 115A1; test: ELISA signal over HTRF expression signal, HEK293F
[18] = target: 181H9; test: ELISA signal over HTRF expression signal, HEK293F
[19] = target: 131B5; test: ELISA signal over HTRF expression signal, HEK293F
[20] = target: 71C4; test: ELISA signal over HTRF expression signal, HEK293F
[21] = target: 7A7; test: ELISA signal over HTRF expression signal, HEK293F
[22] = target: 71H2; test: ELISA signal over HTRF expression signal, HEK293F
[23] = target: 86B4; test: ELISA signal over HTRF expression signal, HEK293F
[24] = target: 127H1; test: ELISA signal over HTRF expression signal, HEK293F
[25] = target: T1, H1-mini2-cluster1+5+6-GCN4 without leader sequence and with FLAG-thrombin-foldon-HIS; test: ELISA, coated CR6261, P. pastoris medium; average of the parental
[26] = target: T1, H1-mini2-cluster1+5+6-GCN4 without …; test: ELISA, coated CR6261, HEK293F medium; average of the parental
[27] = target: 171E5; test: ELISA, coated CR6261, HEK293F medium
[28] = target: 220C9; test: ELISA, coated CR6261, HEK293F medium
[29] = target: 6E12; test: ELISA, coated CR6261, HEK293F medium
[30] = target: 74H9; test: ELISA, coated CR6261, HEK293F medium
[31] = target: 113E7; test: ELISA, coated CR6261, HEK293F medium
[32] = target: 91C4; test: ELISA, coated CR6261, HEK293F medium
[33] = target: 115A1; test: ELISA, coated CR6261, HEK293F medium
[34] = target: 181H9; test: ELISA, coated CR6261, HEK293F medium
[35] = target: 131B5; test: ELISA, coated CR6261, HEK293F medium
[36] = target: 71C4; test: ELISA, coated CR6261, HEK293F medium
[37] = target: 7A7; test: ELISA, coated CR6261, HEK293F medium
[38] = target: 71H2; test: ELISA, coated CR6261, HEK293F medium
[39] = target: 86B4; test: ELISA, coated CR6261, HEK293F medium
[40] = target: 127H1; test: ELISA, coated CR6261, HEK293F medium

B1: CR6261 (antibody, V domains shown)
VH: EVQLVESGAEVKKPGSSVKVSCKASGGPFRSYAISWVRQAPGQGPEWMGGIIPIFGTTKYAPKFQGRVTITADDFAGTVYMELSSLRSEDTAMYYCAKHMGYQVRETMDVWGKGTTVTVSS
VL: QSVLTQPPSVSAAPGQKVTISCSGSSSNIGNDYVSWYQQLPGTAPKLLIYDNNKRPSGIPDRFSGSKSGTSATLGITGLQTGDEANYYCATWDRRPTAYVVFGGGTKLTVLG
B1 was tested, and the fold increase of ratio over parental SEQ ID NO: 6 [1] was 3.57, the ratio (binding signal/HTRF signal) [1] was 21.2 and the fold increase of ratio over parental SEQ ID NO: 6 [2] was 4.15. It also gave a ratio (binding signal/HTRF signal) [2] of 24.7, a fold increase of ratio over parental SEQ ID NO: 6 [3] of 2.94 and a ratio (binding signal/HTRF signal) [3] of 17.4. For the same binder, the fold increase of ratio over parental SEQ ID NO: 6 [4] was 9.97, the ratio (binding signal/HTRF signal) [4] was 59.2 and the fold increase of ratio over parental SEQ ID NO: 6 [5] was 5.54. The ratio (binding signal/HTRF signal) [5] was 32.9, the Kd [6] was 130 nM and the Kd [7] was 150 nM. The Kd [8] was 390 nM, the Kd [9] was 130 nM and the Kd [10] was 150 nM. It also gave a fold increase of ratio over parental SEQ ID NO: 6 [11] of 1.62, a ratio (binding signal/HTRF signal) [11] of 28.1 and a fold increase of ratio over parental SEQ ID NO: 6 [12] of 3. It also gave a ratio (binding signal/HTRF signal) [12] of 52.1, a fold increase of ratio over parental SEQ ID NO: 6 [13] of 2.85 and a ratio (binding signal/HTRF signal) [13] of 49.5. The fold increase of ratio over parental SEQ ID NO: 6 [14] was 4.37, the ratio (binding signal/HTRF signal) [14] was 75.8 and the fold increase of ratio over parental SEQ ID NO: 6 [15] was 2.87. It also gave a ratio (binding signal/HTRF signal) [15] of 49.9, a fold increase of ratio over parental SEQ ID NO: 6 [16] of 1.98 and a ratio (binding signal/HTRF signal) [16] of 34.4. The fold increase of ratio over parental SEQ ID NO: 6 [17] was 3.14, the ratio (binding signal/HTRF signal) [17] was 54.5 and the fold increase of ratio over parental SEQ ID NO: 6 [18] was 2.11. It also gave a ratio (binding signal/HTRF signal) [18] of 36.6, a fold increase of ratio over parental SEQ ID NO: 6 [19] of 2.36 and a ratio (binding signal/HTRF signal) [19] of 41. The fold increase of ratio over parental SEQ ID NO: 6 [20] was 1.72, the ratio (binding signal/HTRF signal) [20] was 29.9 and the fold increase of ratio over parental SEQ ID NO: 6 [21] was 1.47. For the same binder, the ratio (binding signal/HTRF signal) [21] was 25.5, the fold increase of ratio over parental SEQ ID NO: 6 [22] was 3.61 and the ratio (binding signal/HTRF signal) [22] was 62.7. It also gave a fold increase of ratio over parental SEQ ID NO: 6 [23] of 3.44, a ratio (binding signal/HTRF signal) [23] of 59.6 and a fold increase of ratio over parental SEQ ID NO: 6 [24] of 4.25. The ratio (binding signal/HTRF signal) [24] was 73.8, the CR6261 binding signal [25] was 238000 and the CR6261 binding signal [26] was 5.66e+06. It also gave a CR6261 binding signal [27] of 6.63e+06, a CR6261 binding signal [28] of 8.49e+06 and a CR6261 binding signal [29] of 1.53e+07. For the same binder, the CR6261 binding signal [30] was 2.61e+07, the CR6261 binding signal [31] was 1.3e+07 and the CR6261 binding signal [32] was 8.44e+06. The CR6261 binding signal [33] was 9.56e+06, the CR6261 binding signal [34] was 1.19e+07 and the CR6261 binding signal [35] was 5.73e+06. The CR6261 binding signal [36] was 6.41e+06, the CR6261 binding signal [37] was 6.19e+06 and the CR6261 binding signal [38] was 2.11e+07. The CR6261 binding signal [39] was 2e+07 and the CR6261 binding signal [40] was 2.42e+07.

Reference: patent US20170209564A1
